Measurements: publication PMC7660924, “NIGT1 family proteins exhibit dual mode DNA recognition to regulate nutrient response-associated genes in Arabidopsis” (PLoS Genetics, 2020)
Where a chain is given by its changes, count along the chain named.

T1: NIGT1.1 WT (Arabidopsis thaliana (Col-0?)) (UniProt Q9FPE8)
T1 sequence: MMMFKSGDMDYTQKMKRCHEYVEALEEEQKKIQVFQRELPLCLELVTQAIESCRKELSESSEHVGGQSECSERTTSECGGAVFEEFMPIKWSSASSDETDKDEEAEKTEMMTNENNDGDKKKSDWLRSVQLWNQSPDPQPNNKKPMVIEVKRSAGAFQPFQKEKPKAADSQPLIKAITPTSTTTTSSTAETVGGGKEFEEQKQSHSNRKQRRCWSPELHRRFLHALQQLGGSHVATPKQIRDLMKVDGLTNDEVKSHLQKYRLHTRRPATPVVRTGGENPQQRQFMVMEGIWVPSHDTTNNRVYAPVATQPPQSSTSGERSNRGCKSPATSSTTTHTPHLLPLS

T2: NIGT1.1 L25A/L39A L25A;L39A (Arabidopsis thaliana (Col-0?)) (UniProt Q9FPE8)
T2 sequence: T1 sequence with L25A, L39A

B1: Trx-6×His-NIGT1.1^WT-6×His recombinant protein (natural protein, Arabidopsis thaliana, UniProt Q9FPE8 1-344, looked up)
chain: T1 sequence
notes: NIGT1.1, Arabidopsis thaliana, At1g25550; cDNA encoding NIGT1.1^WT cloned into pET32-b(+) by NcoI and HindIII; expected mass of the recombinant protein 57.4 kDa; Plasmid pET32-NIGT1.1; also called recombinant NIGT1.1^WT; Trx-6×His-NIGT1.1-6×His; not shown: Trx, N-terminal, kept; 6×His, N-terminal, kept; 6×His, C-terminal, kept

Legend:
[1] = molecular target: T1, NIGT1.1 WT (Arabidopsis thaliana (Col-0?)); experiment: EMSA; conditions: EMSA: 15 ul reaction, 40 fmol biotin-labeled probe, 7.5-60 ng protein, 4% polyacrylamide gel; buffer, salt, pH and temperature not given (as in ref 24)
[2] = molecular target: T2, NIGT1.1 L25A/L39A L25A;L39A (Arabidopsis thaliana (Col-0?)); experiment: EMSA; conditions: EMSA: 15 ul reaction, 40 fmol biotin-labeled probe, 7.5-60 ng protein, 4% polyacrylamide gel; buffer, salt, pH and temperature not given (as in ref 24)
[3] = molecular target: the molecule itself; experiment: SEC-MALS; Shodex PROTEIN LW-803 column; 20 mM Tris-HCl (pH 7.5), 500 mM NaCl, 10% glycerol, room temperature; 1 mg/ml, 70 μl loaded; 0.8 ml/min

| Molecule | binding [1] | binding [2] | stoichiometry N [3] |
| --- | --- | --- | --- |
| ACACAGGAAACAGCTATGACCATGAGCTCTTTTATTTTCTGGGAAACTTAAGTGAGAATGATGAATGAAGAAGAAAGAGAGGGGGAAGAGGTTTAGAGATATAAAAGGGATTAAAAAGAATATTCTTAAGGTTTCTAATTAGAATATCCTTTTTTCTCTGTCTTTCTTTCGGGAGAATATCTTCCTTTTATTCCTTTCTTATTTATTACTTTTTCGTGGTTATCTGTGGGTGAGATTATAACACATGCCTATGTCAGTTCATAAATATCAATCACAACTC (double strand) [P2 (SPX1 promoter)] | binds | binds more weakly |  |
| ACACAGGAAACAGCTATGACCATGCAACGGTTAACTATCGATTTAAATATTAATTTTCGAGGAATCCATTTTCGCCGCAAGCATCTTCCTAGTCTCTCGCTTATCACCAAAGGTTGCCGATATCCTTCCAAATGACCGCTCTACCCTTCCCTCATCTTGC (double strand) [P3-1] | no binding | binds more weakly |  |
| AATGAATTAAGACGCGAATCGGGAAAATTCAATAAATTGTCCATTGGGGGGTGCTTTAAAGAAAGATTGAAAGATGCCGAGGTTTATACCCTTTTCCTATCAAGAATATTCCATGGAATCCAACTACTTTTGACCCATTTGCGTATTTGTTAAATCTTTTCAGAAAATCAAAAGTGGGTAAATTGTCAAACTAGTTGTAGTATTGAACTACTATTTATTGATCATGCCATCATCCATGGTCATAGCTGTTTCCTGTGT (double strand) [P1 (SPX1 promoter)] | binds | binds more weakly |  |
| ACACAGGAAACAGCTATGACCATGCGATGTCTGAATATTAATCACACGATGGCTTATATAGGGTTCCTAGCCAGTGTTGACAATGAAAAAAGCATTCTTTGGAGATTCTCAACGGTTAACTATCGATTTAAATATTAATTTTCGAGGAATCCATTTTCGCCGCAAGCATCTTCCTAGTCTCTCGCTTATCACCAAAGGTTGCCGATATCCTTCCAAATGACCGCTCTACCCTTCCCTCATCTTGC (double strand) [P3 (NRT2.1 promoter)] | binds | binds more weakly |  |
| AATATTTAAATCGATAGTTAACCGTTGAGAATCTCCAAAGAATGCTTTTTTCATTGTCAACACTGGCTAGGAACCCTATATAAGCCATCGTGTGATTAATATTCAGACATCGCATGGTCATAGCTGTTTCCTGTGT (double strand) [P3-2] | no binding | binds more weakly |  |
| B1 |  |  | 2 |
